The data set concerns Pseudomonas fluorescens HPPD polypeptide (wild-type and mutants). As to the kind of experiment: Coupled HPPD activity assay: turnover and residual turnover in crude HPPD polypeptide extracts with and without Cmpd. 1. It is filed as biochemical. As to conditions: for Residual turnover [%]: 100 μM Cmpd. 1, normalised to turnover without inhibitor; for Turnover: absence of Cmpd. 1; for Turnover / Residual turnover: changes in absorbance (OD) at 320 nm in the coupled assay, 30 min; for Residual turnover: presence of 100 μM Cmpd. 1.

Positions count from the first letter of the chain named.

B1: SEQ ID NO:20 (protein)
chain: MADLYENPMGLMGFEFIEFASPTPGTLEPIFEIMGFTKVATHRSKNVHLYRQGEINLILNNEPNSIASYFAAEHGPSVCGMAFRVKDSQKAYNRALELGAQPIHIDTGPMELNLPAIKGIGGAPLYLIDRFGEGSSIYDIDFVYLEGVERNPVGAGLKVIDHLTHNVYRGRMVYWANFYEKLFNFREARYFDIKGEYTGLTSKAMSAPDGMIRIPLNEESSKGAGQIEEFLMQFNGEGIQHVAFLTDDLVKTWDALKKIGMRFMTAPGDEYYEMLEGRLPDHGEPVDQLQARGILLDGSSVEGDKRLLLQIFSERLMGPVFFEFIQRKGDDGFGPDSFKVLFEQMERDQVRRGVLTAD
modifications: mutant HPPD polypeptide
Regarding B1, the “Residual turnover [%]” value worked out at 49%, the Turnover is 0.166 and the Residual turnover is on record as 0.082.

B2: SEQ ID NO:30 (protein)
chain: B1 chain with R315Q, D336H, M345I
modifications: mutant HPPD polypeptide
Turning to B2, the “Residual turnover [%]” value was 61%, the Turnover is listed as 0.294 and the Residual turnover is 0.18.

B3: SEQ ID NO:53 (protein)
chain: B1 chain with M264L, R315T, D336H
modifications: mutant HPPD polypeptide
B3: the “Residual turnover [%]” value is on record as 73%, the Turnover was 0.339 and the Residual turnover was 0.246.

B4: SEQ ID NO:31 (protein)
chain: B1 chain with R315K, D336H, Q344S
modifications: mutant HPPD polypeptide
Regarding B4, the “Residual turnover [%]” value was 48%, the Turnover is reported as 0.268 and the Residual turnover came out at 0.128.

B5: SEQ ID NO:32 (protein)
chain: B1 chain with R315Q, D336H, Q344S
modifications: mutant HPPD polypeptide
For B5, the “Residual turnover [%]” value came to 57%, the Turnover stood at 0.269 and the Residual turnover is reported as 0.154.

B6: SEQ ID NO:23 (protein)
chain: B1 chain with R315Q, D336H, Q344S, M345I
modifications: mutant HPPD polypeptide
On to B6, for which the “Residual turnover [%]” value stood at 48%, the Turnover was determined as 0.272 and the Residual turnover came out at 0.131.

B7: SEQ ID NO:51 (protein)
chain: B1 chain with P215A, R315Q, D336H, Q344S, M345I
modifications: mutant HPPD polypeptide
Take B7: the “Residual turnover [%]” value is 61%, the Turnover turned out to be 0.173 and the Residual turnover stood at 0.106.

B8: SEQ ID NO:45 (protein)
chain: B1 chain with R213K, R315T, D336H, Q344S
modifications: mutant HPPD polypeptide
With B8, the “Residual turnover [%]” value came to 60%, the Turnover is recorded as 0.275 and the Residual turnover amounted to 0.164.

B9: SEQ ID NO:41 (protein)
chain: B1 chain with R213K, Q344S
modifications: mutant HPPD polypeptide
For the molecule B9, the “Residual turnover [%]” value was determined as 43%, the Turnover came to 0.247 and the Residual turnover is reported as 0.105.

B10: SEQ ID NO:44 (protein)
chain: B1 chain with R213K, R315Q, D336H, Q344S
modifications: mutant HPPD polypeptide
B10: the “Residual turnover [%]” value was 54%, the Turnover was determined as 0.272 and the Residual turnover came out at 0.148.

B11: SEQ ID NO:40 (protein)
chain: B1 chain with R213K, R315Q, Q344S
modifications: mutant HPPD polypeptide
Regarding B11, the “Residual turnover [%]” value amounted to 36%, the Turnover stood at 0.204 and the Residual turnover is 0.073.

B12: SEQ ID NO:22 (protein)
chain: B1 chain with R315K, D336H, Q344S, M345I
modifications: mutant HPPD polypeptide
Consider B12, for which the “Residual turnover [%]” value stood at 42% and the Turnover worked out at 0.259.

B13: SEQ ID NO:29 (protein)
chain: B1 chain with R315K, D336H, M345I
modifications: mutant HPPD polypeptide
In the case of B13, the “Residual turnover [%]” value is 61%, the Turnover is given as 0.286 and the Residual turnover is recorded as 0.174.

B14: SEQ ID NO:42 (protein)
chain: B1 chain with R213K, R315T, Q344S
modifications: mutant HPPD polypeptide
In the case of B14, the “Residual turnover [%]” value is listed as 33%, the Turnover was 0.209 and the Residual turnover stood at 0.068.

B15: SEQ ID NO:47 (protein)
chain: B1 chain with R213K, Q344S, M345I
modifications: mutant HPPD polypeptide
As for B15, the “Residual turnover [%]” value came to 68%, the Turnover amounted to 0.09 and the Residual turnover was found to be 0.061.

B16: SEQ ID NO:50 (protein)
chain: B1 chain with R213K, R315T, D336H, Q344S, M345I
modifications: mutant HPPD polypeptide
As for B16, the “Residual turnover [%]” value amounted to 54%, the Turnover stood at 0.272 and the Residual turnover is given as 0.148.

B17: SEQ ID NO:33 (protein)
chain: B1 chain with D336H, Q344S
modifications: mutant HPPD polypeptide
On to B17, for which the Turnover is 0.015 and the Residual turnover worked out at 0.014.

B18: SEQ ID NO:27 (protein)
chain: B1 chain with M264L, D336H, Q344S, M345I
modifications: mutant HPPD polypeptide
For the molecule B18, the “Residual turnover [%]” value is 58%, the Turnover is 0.262 and the Residual turnover came to 0.153.

B19: SEQ ID NO:49 (protein)
chain: B1 chain with R213K, R315Q, D336H, Q344S, M345I
modifications: mutant HPPD polypeptide
As for B19, the “Residual turnover [%]” value stood at 52%, the Turnover came to 0.318 and the Residual turnover turned out to be 0.165.

B20: SEQ ID NO:52 (protein)
chain: B1 chain with P215A, D336H, Q344S, M345I
modifications: mutant HPPD polypeptide
As to B20, the “Residual turnover [%]” value is on record as 61%, the Turnover is 0.173 and the Residual turnover was found to be 0.105.

B21: SEQ ID NO:48 (protein)
chain: B1 chain with R213K, R315T, Q344S, M345I
modifications: mutant HPPD polypeptide
For the molecule B21, the “Residual turnover [%]” value is on record as 38%, the Turnover turned out to be 0.161 and the Residual turnover is recorded as 0.061.

B22: SEQ ID NO:21 (protein)
chain: B1 chain with R315T
modifications: mutant HPPD polypeptide
Take B22: the “Residual turnover [%]” value is listed as 38%, the Turnover came to 0.214 and the Residual turnover was 0.082.

B23: SEQ ID NO:37 (protein)
chain: B1 chain with D336H
modifications: mutant HPPD polypeptide
For B23, the “Residual turnover [%]” value is on record as 42%, the Turnover came to 0.106 and the Residual turnover is recorded as 0.045.

B24: SEQ ID NO:39 (protein)
chain: B1 chain with R213K, R315K, Q344S
modifications: mutant HPPD polypeptide
As for B24, the “Residual turnover [%]” value was found to be 32%, the Turnover was 0.176 and the Residual turnover was 0.057.

B25: SEQ ID NO:43 (protein)
chain: B1 chain with R213K, R315K, D336H, Q344S
modifications: mutant HPPD polypeptide
Turning to B25, the “Residual turnover [%]” value was determined as 54%, the Turnover was 0.291 and the Residual turnover is recorded as 0.157.

B26: SEQ ID NO:34 (protein)
chain: B1 chain with R315T, D336H, Q344S
modifications: mutant HPPD polypeptide
For B26, the “Residual turnover [%]” value was 53%, the Turnover is given as 0.278 and the Residual turnover is listed as 0.148.

B27: SEQ ID NO:46 (protein)
chain: B1 chain with R213K, R315K, Q344S, M345I
modifications: mutant HPPD polypeptide
For the molecule B27, the “Residual turnover [%]” value turned out to be 36%, the Turnover amounted to 0.162 and the Residual turnover stood at 0.059.

B28: SEQ ID NO:25 (protein)
chain: B1 chain with R315T, D336H, Q344S, M345I
modifications: mutant HPPD polypeptide
Turning to B28, the “Residual turnover [%]” value amounted to 45%, the Turnover is 0.25 and the Residual turnover is 0.112.

B29: SEQ ID NO:24 (protein)
chain: B1 chain with D336H, Q344S, M345I
modifications: mutant HPPD polypeptide
As for B29, the “Residual turnover [%]” value is recorded as 54%, the Turnover was 0.271 and the Residual turnover came out at 0.147.

The values are drawn from US11371056B2, “HPPD variants and methods of use” (BASF Agricultural Solutions Seed US LLC, priority 2017, dated 2022).
